Common to all, as to experiment: in vitro binding assay to recombinant MHC class II protein
In test [1] the target is MHC class II of the HLA DRB1 0101 genotype (Homo sapiens, UniProt P01903+P01911, A100R/D57E/F55L/F60I/F76Y/I96L/L162R/M171V/P40L/Q125E/R42F/V115G/Y59C). Further details: key: *0101: the listing of the allele in the column for the allele indicates binding; *0401: “0401” in the “Binds to 0401” column indicates binding of the peptide to MHC class II of the HLA DRB1 0401 genotype; *0404: the listing of the allele in the column for the allele indicates binding; *0405: the listing of the allele in the column for the allele indicates binding; *0408: the listing of the allele in the column for the allele indicates binding; *1001: the listing of the allele in the column for the allele indicates binding; “no” or no data indicates no binding to a protein of that genotype. From the text: (§1) Binding of the peptides to recombinant MHC class II protein of various alleles has been confirmed in an in vitro binding assay and the results are shown in Tables 1, 2 and 3. In table 1, 2 and 3, the listing of the allele in the column for the allele indicates binding. Thus “0401” in the “Binds to 0401” column indicates binding of the peptide to MHC class II of the HLA DRB1 0401 genotype. “no” or no data indicates no binding to a protein of that genotype. Empty boxes indicate no binding or that binding has not been determined. In the tables it is also indicated if the peptide has a citrulline residue, where “yes” indicates the presence of a citrulline residue and “no” indicates the absence of a citrulline residue.

Test [2] has as its target MHC class II of the HLA DRB1 0404 genotype (Homo sapiens, UniProt P01903+P01911, A100R/A169T/F76Y/I96L/K127E/L162R/M171V/N62H/P40V/Q125Y/R42H/S133A/S149N/S66Y/V209L/W38E). More on the design: key: *0101: the listing of the allele in the column for the allele indicates binding; *0401: “0401” in the “Binds to 0401” column indicates binding of the peptide to MHC class II of the HLA DRB1 0401 genotype; *0404: the listing of the allele in the column for the allele indicates binding; *0405: the listing of the allele in the column for the allele indicates binding; *0408: the listing of the allele in the column for the allele indicates binding; *1001: the listing of the allele in the column for the allele indicates binding; “no” or no data indicates no binding to a protein of that genotype.
Excerpt: as §1

Test [3] concerns the target MHC class II of the HLA DRB1 0405 genotype (Homo sapiens, UniProt P01903+P01911, A100R/A169T/D86S/F76Y/I96L/K127E/L162R/M171V/N62H/P40V/Q125Y/R42H/S133A/S149N/S66Y/V115G/V209L/W38E). Further details: key: *0101: the listing of the allele in the column for the allele indicates binding; *0401: “0401” in the “Binds to 0401” column indicates binding of the peptide to MHC class II of the HLA DRB1 0401 genotype; *0404: the listing of the allele in the column for the allele indicates binding; *0405: the listing of the allele in the column for the allele indicates binding; *0408: the listing of the allele in the column for the allele indicates binding; *1001: the listing of the allele in the column for the allele indicates binding; “no” or no data indicates no binding to a protein of that genotype.
Excerpt: as §1

Test [4] has as its target MHC class II of the HLA DRB1 0401 genotype (Homo sapiens, UniProt P01903+P01911, A100K/A169T/F76Y/I96L/K127E/L162R/M171V/N62H/P40V/Q125Y/R42H/S133A/S149N/S66Y/V115G/V209L/W38E). More on the design: key to Binds to 0401: *0101: the listing of the allele in the column for the allele indicates binding; *0401: “0401” in the “Binds to 0401” column indicates binding of the peptide to MHC class II of the HLA DRB1 0401 genotype; *0404: the listing of the allele in the column for the allele indicates binding; *0405: the listing of the allele in the column for the allele indicates binding; *0408: the listing of the allele in the column for the allele indicates binding; *1001: the listing of the allele in the column for the allele indicates binding; “no” or no data indicates no binding to a protein of that genotype. To be noted: recombinant MHC class II, HLA DRB1 0401.
Excerpt: as §1
Thus for these peptides no binding to HLA-DR0401 was observed when citrulline was exchanged with the original amino acid arginine (Table 4). No binding of the citrullinated peptides was seen to HLA-DR 03 or 02 variants.

Test [5] relates to MHC class II of the HLA DRB1 0408 genotype. More on the design: species or system human; key: *0101: the listing of the allele in the column for the allele indicates binding; *0401: “0401” in the “Binds to 0401” column indicates binding of the peptide to MHC class II of the HLA DRB1 0401 genotype; *0404: the listing of the allele in the column for the allele indicates binding; *0405: the listing of the allele in the column for the allele indicates binding; *0408: the listing of the allele in the column for the allele indicates binding; *1001: the listing of the allele in the column for the allele indicates binding; “no” or no data indicates no binding to a protein of that genotype.
Excerpt: as §1

In test [6] the test system is MHC class II of the HLA DRB1 1001 genotype. More on the design: species or system human; key to Binds to 1001: *0101: the listing of the allele in the column for the allele indicates binding; *0401: “0401” in the “Binds to 0401” column indicates binding of the peptide to MHC class II of the HLA DRB1 0401 genotype; *0404: the listing of the allele in the column for the allele indicates binding; *0405: the listing of the allele in the column for the allele indicates binding; *0408: the listing of the allele in the column for the allele indicates binding; *1001: the listing of the allele in the column for the allele indicates binding; “no” or no data indicates no binding to a protein of that genotype. To be noted: recombinant MHC class II, HLA DRB1 1001.
Excerpt: as §1

Square brackets hold non-standard residues; d marks the D form. Ends that are not written are not given here. Cit = NC(=O)NCCC[C@H](N)C(=O)O

16 substances from patent US10774129B2, “Complexes of types of MHC class II that bind to collagen type II peptides and their use on diagnosis and treatment” (FRAUNHOFER-GESELLSCHAFT ZUR FÖRDERUNG DER ANGEWANDTEN …, priority 2011, dated 2020) can be followed below.

On to “a-enolase 38: human alpha-enolase peptide, not citrullinated (AEVYHNLKNVIKEKY; listed as Homo sapiens)”, for which the “Binds to 0101” value in test [1] was “*0101”. In addition, the “Binds to 0404” value in test [2] is listed as “no”. In addition, the “Binds to 0405” value in test [3] is recorded as “*0405”. Also, in test [4], the “Binds to 0401” value is reported as “*0401”. Besides, in test [5], the “Binds to 0408” value is reported as “*0408”. The “Binds to 1001” value in test [6] was “no”.

“a-enolase 299: citrullinated human alpha-enolase peptide (KGVPLY[Cit]HIADLAGN; listed as Homo sapiens)”: the “Binds to 0101” value in test [1] is “no”. Further, the “Binds to 0404” value in test [2] is on record as “no”. In test [3], the “Binds to 0405” value was “*0405”. In addition, the “Binds to 0401” value in test [4] is “*0401”. In addition, in test [5], the “Binds to 0408” value is given as “*0408”. Further, in test [6], the “Binds to 1001” value is given as “no”.

Consider “a-enolase 69: human alpha-enolase peptide, not citrullinated (LLKVNQIGSVTESLQ; listed as Homo sapiens)”, for which the “Binds to 0101” value in test [1] is given as “no”. In test [2], the “Binds to 0404” value is “no”. In addition, in test [3], the “Binds to 0405” value is “*0405”. Further, the “Binds to 0401” value in test [4] is “no”. Moreover, the “Binds to 0408” value in test [5] is listed as “no”. In addition, the “Binds to 1001” value in test [6] is “no”.

On to “a-enolase 13: human alpha-enolase peptide, not citrullinated (GVSKAVEHINKTIAP; listed as Homo sapiens)”, for which, in test [1], the “Binds to 0101” value is “*0101”. Moreover, in test [2], the “Binds to 0404” value is reported as “*0404”. For the same substance, in test [3], the “Binds to 0405” value was “no”. Also, the “Binds to 0401” value in test [4] is “no”. Further, the “Binds to 0408” value in test [5] is listed as “no”. For the same substance, the “Binds to 1001” value in test [6] was “no”.

Take “type II collagen 268: human collagen type II peptide, not citrullinated (PQGPRGDKGEAGEPG; listed as Homo sapiens)”: the “Binds to 1001” value in test [6] is listed as “*1001”.

As to “a-enolase 57: human alpha-enolase peptide, not citrullinated (KSFIKDYPVVSIEDP; listed as Homo sapiens)”, the “Binds to 0101” value in test [1] is reported as “*0101”. In addition, in test [2], the “Binds to 0404” value is “*0404”. The “Binds to 0405” value in test [3] is “*0405”. Also, the “Binds to 0401” value in test [4] is on record as “*0401”. The “Binds to 0408” value in test [5] is “*0408”. The “Binds to 1001” value in test [6] is “*1001”.

In the case of “a-enolase 1: human alpha-enolase peptide, not citrullinated (MSILKIHAREIFDSR; listed as Homo sapiens)”, in test [1], the “Binds to 0101” value is listed as “*0101”. Further, the “Binds to 0404” value in test [2] was “*0404”. Moreover, in test [3], the “Binds to 0405” value is “*0405”. Besides, the “Binds to 0401” value in test [4] is “no”. Moreover, the “Binds to 0408” value in test [5] is given as “no”. The “Binds to 1001” value in test [6] is recorded as “*1001”.

Turning to “a-enolase 45: human alpha-enolase peptide, not citrullinated (KEGLELLKTAIGKAG; listed as Homo sapiens)”, the “Binds to 0101” value in test [1] is listed as “*0101”. Moreover, the “Binds to 0404” value in test [2] is given as “*0404”. Further, the “Binds to 0405” value in test [3] was “*0405”. Also, the “Binds to 0401” value in test [4] is “*0401”. For the same substance, the “Binds to 0408” value in test [5] was “*0408”. The “Binds to 1001” value in test [6] is “no”.

In the case of “type II collagen 384: citrullinated human collagen type II peptide (QGP[Cit]GLPGTPGTDGP; listed as Homo sapiens)”, the “Binds to 0408” value in test [5] is “*0408”. Also, in test [6], the “Binds to 1001” value was “*1001”.

With “type II collagen 362: citrullinated human collagen type II peptide (PKGANGDPG[Cit]PGEPG; listed as Homo sapiens)”, in test [6], the “Binds to 1001” value is “*1001”.

As to “a-enolase 36: human alpha-enolase peptide, not citrullinated (ANFREAMRIGAEVYH; listed as Homo sapiens)”, the “Binds to 0101” value in test [1] is given as “*0101”. The “Binds to 0404” value in test [2] was “no”. Besides, in test [3], the “Binds to 0405” value is recorded as “*0405”. Further, the “Binds to 0401” value in test [4] was “no”. Further, the “Binds to 0408” value in test [5] was “no”. The “Binds to 1001” value in test [6] is listed as “no”.

Consider “a-enolase 80: human alpha-enolase peptide, not citrullinated (GAPCRSERLAKYNQL; listed as Homo sapiens)”, for which the “Binds to 0101” value in test [1] is “*0101”. The “Binds to 0404” value in test [2] is “no”. The “Binds to 0405” value in test [3] is “*0405”. In test [4], the “Binds to 0401” value is recorded as “no”. Further, in test [5], the “Binds to 0408” value was “*0408”. Besides, the “Binds to 1001” value in test [6] is recorded as “no”.

Regarding “a-enolase 34: human alpha-enolase peptide, not citrullinated (QEFMILPVGAANFRE; listed as Homo sapiens)”, in test [1], the “Binds to 0101” value was “*0101”. Moreover, the “Binds to 0404” value in test [2] is “*0404”. In addition, the “Binds to 0405” value in test [3] was “*0405”. For the same substance, in test [4], the “Binds to 0401” value is “*0401”. In addition, the “Binds to 0408” value in test [5] is on record as “no”. In addition, in test [6], the “Binds to 1001” value was “no”.

In the case of “a-enolase 26: human alpha-enolase peptide, not citrullinated (KGVPLYRHIADLAGN; listed as Homo sapiens)”, the “Binds to 0101” value in test [1] is given as “*0101”. Also, the “Binds to 0404” value in test [2] is on record as “*0404”. In addition, the “Binds to 0405” value in test [3] is recorded as “*0405”. Also, the “Binds to 0401” value in test [4] is “*0401”. Besides, the “Binds to 0408” value in test [5] is “*0408”. Besides, the “Binds to 1001” value in test [6] is reported as “no”.

On to “type II collagen 263: human collagen type II peptide, not citrullinated (GDRGEAGAQGPMGPS; listed as Homo sapiens)”, for which the “Binds to 1001” value in test [6] is on record as “*1001”.

As for “a-enolase 15: human alpha-enolase peptide, not citrullinated (KTIAPALVSKKLNVT; listed as Homo sapiens)”, in test [1], the “Binds to 0101” value is “*0101”. Besides, the “Binds to 0404” value in test [2] is “*0404”. Moreover, the “Binds to 0405” value in test [3] is on record as “no”. The “Binds to 0401” value in test [4] is recorded as “no”. In addition, the “Binds to 0408” value in test [5] was “*0408”. Also, the “Binds to 1001” value in test [6] is given as “no”.
